Patent US20190241648A1 (STATEN BIOTECHNOLOGY B V, published 2019)
Ends that are not written are not given here.

Legend:
Test in all cases: peptide microarray
[1] = biological target: T1, ApoC3 peptide … V43A (human, not fully specified; cyclic constrained)
T1 peptide: ARGWATDGFSSLK
Summary of the method: (§1)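 Peptide microarrays of ApoC3-derived peptides incubated with antibody samples, then stained with goat anti-human IgG (Fc) DyLight680 (1:5000) and anti-HA DyLight800 (1:2000) control. Read-out by fluorescence scanning at intensities 7/7 (red/green); a secondary-only pre-stain checked background, HA frame peptides served as quality control.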

[2] = biological target: T2, ApoC3 peptide … T44A (human, not fully specified (bridges); also: cyclic constrained)
T2 peptide: ARGWVADGFSSLK
Summary of the method: as §1

[3] = biological target: T3, ApoC3 peptide … D45A (human, not fully specified (bridges); also: cyclic constrained)
T3 peptide: ARGWVTAGFSSLK
Summary of the method: as §1

[4] = biological target: T4, ApoC3 peptide … G41D (human, also: cyclic constrained)
T4 peptide: ARDWVTDGFSSLK
Summary of the method: as §1

[5] = biological target: T5, ApoC3 peptide … V43D (human, not fully specified; cyclic constrained)
T5 peptide: ARGWDTDGFSSLK
Summary of the method: as §1

[6] = biological target: T6, ApoC3 peptide … K51D (human, thioether (positions not given here); also: cyclic constrained)
T6 peptide: ARGWVTDGFSSLD
Summary of the method: as §1

[7] = biological target: T7, ApoC3 peptide … G41E (human, also: cyclic constrained)
T7 peptide: AREWVTDGFSSLK
Summary of the method: as §1

[8] = biological target: T8, ApoC3 peptide … V43E (human, not fully specified; cyclic constrained)
T8 peptide: ARGWETDGFSSLK
Summary of the method: as §1

[9] = biological target: T9, ApoC3 peptide … L50E (human, not fully specified; cyclic constrained)
T9 peptide: ARGWVTDGFSSEK
Summary of the method: as §1

[10] = biological target: T10, ApoC3 peptide … S48F (human, not fully specified; cyclic constrained)
T10 peptide: ARGWVTDGFFSLK
Summary of the method: as §1

[11] = biological target: T11, ApoC3 peptide … V43G (human, not fully specified; cyclic constrained)
T11 peptide: ARGWGTDGFSSLK
Summary of the method: as §1

[12] = biological target: T12, ApoC3 peptide … T44G (human, not fully specified (bridges); also: cyclic constrained)
T12 peptide: ARGWVGDGFSSLK
Summary of the method: as §1

[13] = biological target: T13, ApoC3 peptide … A39H (human, cyclic constrained)
T13 peptide: HRGWVTDGFSSLK
Summary of the method: as §1

[14] = biological target: T14, ApoC3 peptide … D45I (human, cyclic constrained)
T14 peptide: ARGWVTIGFSSLK
Summary of the method: as §1

[15] = biological target: T15, ApoC3 peptide … V43M (human, not fully specified; cyclic constrained)
T15 peptide: ARGWMTDGFSSLK
Summary of the method: as §1

[16] = biological target: T16, ApoC3 peptide … F47M (human, not fully specified (bridges); also: cyclic constrained)
T16 peptide: ARGWVTDGMSSLK
Summary of the method: as §1

[17] = biological target: T17, ApoC3 peptide … L50M (human, not fully specified; cyclic constrained)
T17 peptide: ARGWVTDGFSSMK
Summary of the method: as §1

[18] = biological target: T18, ApoC3 peptide … R40P (human, not fully specified (bridges); also: cyclic constrained)
T18 peptide: APGWVTDGFSSLK
Summary of the method: as §1

[19] = biological target: ApoC3 peptide … S48P (human, cyclic constrained)
Summary of the method: as §1

[20] = biological target: T19, ApoC3 peptide … L50Q (human, not fully specified (bridges); also: cyclic constrained)
T19 peptide: ARGWVTDGFSSQK
Summary of the method: as §1

[21] = biological target: T20, ApoC3 peptide … S49R (human, not fully specified (bridges); also: cyclic constrained)
T20 peptide: ARGWVTDGFSRLK
Summary of the method: as §1

[22] = biological target: T21, ApoC3 peptide … G41S (human, also: cyclic constrained)
T21 peptide: ARSWVTDGFSSLK
Summary of the method: as §1

[23] = biological target: T22, ApoC3 peptide … T44S (human, not fully specified (bridges); also: cyclic constrained)
T22 peptide: ARGWVSDGFSSLK
Summary of the method: as §1

[24] = biological target: T23, ApoC3 peptide … F47S (human, also: cyclic constrained)
T23 peptide: ARGWVTDGSSSLK
Summary of the method: as §1

[25] = biological target: T24, ApoC3 peptide … W42V (human, not fully specified (bridges); also: cyclic constrained)
T24 peptide: ARGVVTDGFSSLK
Summary of the method: as §1

[26] = biological target: T25, ApoC3 peptide … D45V (human, cyclic constrained)
T25 peptide: ARGWVTVGFSSLK
Summary of the method: as §1

[27] = biological target: T26, ApoC3 peptide … K51V (human, not fully specified; cyclic constrained)
T26 peptide: ARGWVTDGFSSLV
Summary of the method: as §1

[28] = biological target: T27, ApoC3 peptide … S49W (human, not fully specified (bridges); also: cyclic constrained)
T27 peptide: ARGWVTDGFSWLK
Summary of the method: as §1

[29] = biological target: T28, ApoC3 peptide … L50W (human, not fully specified (bridges); also: cyclic constrained)
T28 peptide: ARGWVTDGFSSWK
Summary of the method: as §1

[30] = biological target: T29, ApoC3 peptide … V43Y (human, not fully specified (bridges); also: cyclic constrained)
T29 peptide: ARGWYTDGFSSLK
Summary of the method: as §1

[31] = biological target: T30, ApoC3 peptide … K51Y (human, not fully specified; cyclic constrained)
T30 peptide: ARGWVTDGFSSLY
Summary of the method: as §1

B1: anti-ApoC3 antibody 14C7 (antibody, V domains shown)
VH: QVQVQESGPGLVKPSQTLSLTCTVSGGSITTNSYYWSWIRQPPGKGLEWMGAIDYSGDTYYSPSLKSRTSISRDTSKNQFTLQLTSVTPEDTAVYYCVSRIPTGEYWGQGTQVTVSS
VL: QTVVTQEPSLSVSPGGTVTLTCGLNSGSVTSSNYPDWYQQTPGQAPRLLIYNTNSRHSGVPSRFSGSISGNKAALTITGAQPEDEADYYCALYMGSDSVVFGGGTHLTVL
notes: it was detected with goat anti-human IgG (Fc); also called mAb 14C7; llama antibody 14C7
[1]
  % of binding to wild-type peptide: 26.9%
[2]
  % of binding to wild-type peptide: 0%
[3]
  % of binding to wild-type peptide: 45.3%
[4]
  % of binding to wild-type peptide: 19.4%
[5]
  % of binding to wild-type peptide: 0%
[6]
  % of binding to wild-type peptide: 0%
[7]
  % of binding to wild-type peptide: 28.1%
[8]
  % of binding to wild-type peptide: 0%
[9]
  % of binding to wild-type peptide: 0%
[10]
  % of binding to wild-type peptide: 9.29%
[11]
  % of binding to wild-type peptide: 0.12%
[12]
  % of binding to wild-type peptide: 0%
[13]
  % of binding to wild-type peptide: 69.4%
[14]
  % of binding to wild-type peptide: 2.04%
[15]
  % of binding to wild-type peptide: 20.9%
[16]
  % of binding to wild-type peptide: 0%
[17]
  % of binding to wild-type peptide: 0.65%
[18]
  % of binding to wild-type peptide: 52.7%
[19]
  % of binding to wild-type peptide: 0.06%
[20]
  % of binding to wild-type peptide: 0.12%
[21]
  % of binding to wild-type peptide: 0.74%
[22]
  % of binding to wild-type peptide: 18.7%
[23]
  % of binding to wild-type peptide: 1.12%
[24]
  % of binding to wild-type peptide: 0%
[25]
  % of binding to wild-type peptide: 48.3%
[26]
  % of binding to wild-type peptide: 1.21%
[27]
  % of binding to wild-type peptide: 3.85%
[28]
  % of binding to wild-type peptide: 0.27%
[29]
  % of binding to wild-type peptide: 17.7%
[30]
  % of binding to wild-type peptide: 230%
[31]
  % of binding to wild-type peptide: 0%
